Reference: the RNAGym collection of RNA variant scans (doi:10.7554/elife.80360)

B1: CPEB3 Ribozyme (parent)
chain: GGGGGCCACAGCAGAAGCGUUCACGUCGCGGCCCCUGUCAGAUUCUGGUGAAUCUGCGAAUUCUGCUGU

Variants of: B1
Test: self-cleavage, relative activity (ratio to wild type); higher = more cleavage; co-transcriptional

Row | Variant | self-cleavage
1 | GGGGGCCACAGCAGAAGCGGUCACGUCGCGGCCCCUGUCAGAUUCUGGUGAAUCUGCGAAUACUGCUGU | 0.183
2 | GGGGGCCACAGCAGAAGCGGUCACGUCGCGGCCCCUGUCAGAUUCUGGUGAAUCUGCGAAUGCUGCUGU | 0.292
3 | GGGGGCCACAGCAGAAGCGGUCACGUCGCGGCCCCUGUCAGAUUCUGGUGAAUCUGCGAAUUCCGCUGU | 0.189
4 | GGGGGCCACAGCAGAAGCGGUCACGUCGCGGCCCCUGUCAGAUUCUGGUGAAUCUGCGAAUUCUGCGGU | 0.152
5 | GGGGGCCACAGCAGAAGCGGUCACGUCGCGGCCCCUGUCAGAUUCUGGUGAAUCUGCGAAUUCUGCUGC | 0.281
6 | GGGGGCCACAGCAGAAGCGGUCACGUCGCGGCCCCUGUCAGAUUCUGGUGAAUCUGCGAAUUCUGCUGG | 0.322
7 | GGGGGCCACAGCAGAAGCGUACACGUCGCGGCCCCUGUCAGAUUCUGGUGAAUCUGCGAAUUCUGCUGU | 0.979
8 | GGGGGCCACAGCAGAAGCGUACCCGUCGCGGCCCCUGUCAGAUUCUGGUGAAUCUGCGAAUUCUGCUGU | 0.969
9 | GGGGGCCACAGCAGAAGCGUACGCGUCGCGGCCCCUGUCAGAUUCUGGUGAAUCUGCGAAUUCUGCUGU | 0.943
10 | GGGGGCCACAGCAGAAGCGUACUCGUCGCGGCCCCUGUCAGAUUCUGGUGAAUCUGCGAAUUCUGCUGU | 0.962
11 | GGGGGCCACAGCAGAAGCGUACACGUCGCGGCCCCUGUCCGAUUCUGGUGAAUCUGCGAAUUCUGCUGU | 0.651
12 | GGGGGCCACAGCAGAAGCGUACACGUCGCGGCCCCUGUCGGAUUCUGGUGAAUCUGCGAAUUCUGCUGU | 0.97
13 | GGGGGCCACAGCAGAAGCGUACACGUCGCGGCCCCUGUCUGAUUCUGGUGAAUCUGCGAAUUCUGCUGU | 0.896
14 | GGGGGCCACAGCAGAAGCGUACACGUCGCGGCCCCUGUCAGCUUCUGGUGAAUCUGCGAAUUCUGCUGU | 0.902
15 | GGGGGCCACAGCAGAAGCGUACACGUCGCGGCCCCUGUCAGGUUCUGGUGAAUCUGCGAAUUCUGCUGU | 0.858
16 | GGGGGCCACAGCAGAAGCGUACACGUCGCGGCCCCUGUCAGAUUCUGGUGCAUCUGCGAAUUCUGCUGU | 0.953
17 | GGGGGCCACAGCAGAAGCGUACACGUCGCGGCCCCUGUCAGAUUCUGGUGGAUCUGCGAAUUCUGCUGU | 1.01
18 | GGGGGCCACAGCAGAAGCGUACACGUCGCGGCCCCUGUCAGAUUCUGGUGUAUCUGCGAAUUCUGCUGU | 0.952
19 | GGGGGCCACAGCAGAAGCGUACACGUCGCGGCCCCUGUCAGAUUCUGGUGACUCUGCGAAUUCUGCUGU | 1.03
20 | GGGGGCCACAGCAGAAGCGUACACGUCGCGGCCCCUGUCAGAUUCUGGUGAGUCUGCGAAUUCUGCUGU | 1.01
21 | GGGGGCCACAGCAGAAGCGUACACGUCGCGGCCCCUGUCAGAUUCUGGUGAUUCUGCGAAUUCUGCUGU | 0.935
22 | GGGGGCCACAGCAGAAGCGUACACGUCGCGGCCCCUGUCAGAUUCUGGUGAAUCUGCGCAUUCUGCUGU | 0.681
23 | GGGGGCCACAGCAGAAGCGUACACGUCGCGGCCCCUGUCAGAUUCUGGUGAAUCUGCGGAUUCUGCUGU | 1
24 | GGGGGCCACAGCAGAAGCGUACACGUCGCGGCCCCUGUCAGAUUCUGGUGAAUCUGCGACUUCUGCUGU | 0.29
25 | GGGGGCCACAGCAGAAGCGUACACGUCGCGGCCCCUGUCAGAUUCUGGUGAAUCUGCGAGUUCUGCUGU | 0.879
26 | GGGGGCCACAGCAGAAGCGUACACGUCGCGGCCCCUGUCAGAUUCUGGUGAAUCUGCGAUUUCUGCUGU | 0.586

Row | Variant | self-cleavage
27 | GGGGGCCACAGCAGAAGCGUAAACGUCGCGGCCCCUGUCAGAUUCUGGUGAAUCUGCGAAUUCUGCUGU | 0.132
28 | GGGGGCCACAGCAGAAGCGUAGACGUCGCGGCCCCUGUCAGAUUCUGGUGAAUCUGCGAAUUCUGCUGU | 0.0886
29 | GGGGGCCACAGCAGAAGCGUACAAGUCGCGGCCCCUGUCAGAUUCUGGUGAAUCUGCGAAUUCUGCUGU | 0.541
30 | GGGGGCCACAGCAGAAGCGUACAGGUCGCGGCCCCUGUCAGAUUCUGGUGAAUCUGCGAAUUCUGCUGU | 0.214
31 | GGGGGCCACAGCAGAAGCGUACACGUAGCGGCCCCUGUCAGAUUCUGGUGAAUCUGCGAAUUCUGCUGU | 0.447
32 | GGGGGCCACAGCAGAAGCGUACACGUUGCGGCCCCUGUCAGAUUCUGGUGAAUCUGCGAAUUCUGCUGU | 0.162
33 | GGGGGCCACAGCAGAAGCGUACACGUCGGGGCCCCUGUCAGAUUCUGGUGAAUCUGCGAAUUCUGCUGU | 0.445
34 | GGGGGCCACAGCAGAAGCGUACACGUCGUGGCCCCUGUCAGAUUCUGGUGAAUCUGCGAAUUCUGCUGU | 0.413
35 | GGGGGCCACAGCAGAAGCGUACACGUCGCGGGCCCUGUCAGAUUCUGGUGAAUCUGCGAAUUCUGCUGU | 0.504
36 | GGGGGCCACAGCAGAAGCGUACACGUCGCGGCACCUGUCAGAUUCUGGUGAAUCUGCGAAUUCUGCUGU | 0.808
37 | GGGGGCCACAGCAGAAGCGUACACGUCGCGGCGCCUGUCAGAUUCUGGUGAAUCUGCGAAUUCUGCUGU | 0.536
38 | GGGGGCCACAGCAGAAGCGUACACGUCGCGGCUCCUGUCAGAUUCUGGUGAAUCUGCGAAUUCUGCUGU | 1
39 | GGGGGCCACAGCAGAAGCGUACACGUCGCGGCCACUGUCAGAUUCUGGUGAAUCUGCGAAUUCUGCUGU | 0.708
40 | GGGGGCCACAGCAGAAGCGUACACGUCGCGGCCUCUGUCAGAUUCUGGUGAAUCUGCGAAUUCUGCUGU | 0.995
41 | GGGGGCCACAGCAGAAGCGUACACGUCGCGGCCCAUGUCAGAUUCUGGUGAAUCUGCGAAUUCUGCUGU | 0.323
42 | GGGGGCCACAGCAGAAGCGUACACGUCGCGGCCCUUGUCAGAUUCUGGUGAAUCUGCGAAUUCUGCUGU | 0.869
43 | GGGGGCCACAGCAGAAGCGUACACGUCGCGGCCCCUGUGAGAUUCUGGUGAAUCUGCGAAUUCUGCUGU | 0.981
44 | GGGGGCCACAGCAGAAGCGUACACGUCGCGGCCCCUGUUAGAUUCUGGUGAAUCUGCGAAUUCUGCUGU | 0.928
45 | GGGGGCCACAGCAGAAGCGUACACGUCGCGGCCCCUGUCAGAUUAUGGUGAAUCUGCGAAUUCUGCUGU | 1.01
46 | GGGGGCCACAGCAGAAGCGUACACGUCGCGGCCCCUGUCAGAUUGUGGUGAAUCUGCGAAUUCUGCUGU | 0.956
47 | GGGGGCCACAGCAGAAGCGUACACGUCGCGGCCCCUGUCAGAUUUUGGUGAAUCUGCGAAUUCUGCUGU | 0.967
48 | GGGGGCCACAGCAGAAGCGUACACGUCGCGGCCCCUGUCAGAUUCUGGUGAAUAUGCGAAUUCUGCUGU | 0.872
49 | GGGGGCCACAGCAGAAGCGUACACGUCGCGGCCCCUGUCAGAUUCUGGUGAAUGUGCGAAUUCUGCUGU | 0.936
50 | GGGGGCCACAGCAGAAGCGUACACGUCGCGGCCCCUGUCAGAUUCUGGUGAAUUUGCGAAUUCUGCUGU | 0.673
51 | GGGGGCCACAGCAGAAGCGUACACGUCGCGGCCCCUGUCAGAUUCUGGUGAAUCUGAGAAUUCUGCUGU | 0.268
52 | GGGGGCCACAGCAGAAGCGUACACGUCGCGGCCCCUGUCAGAUUCUGGUGAAUCUGGGAAUUCUGCUGU | 0.361

Row | Variant | self-cleavage
53 | GGGGGCCACAGCAGAAGCGUACACGUCGCGGCCCCUGUCAGAUUCUGGUGAAUCUGUGAAUUCUGCUGU | 0.447
54 | GGGGGCCACAGCAGAAGCGUACACGUCGCGGCCCCUGUCAGAUUCUGGUGAAUCUGCGAAUUAUGCUGU | 0.795
55 | GGGGGCCACAGCAGAAGCGUACACGUCGCGGCCCCUGUCAGAUUCUGGUGAAUCUGCGAAUUGUGCUGU | 0.727
56 | GGGGGCCACAGCAGAAGCGUACACGUCGCGGCCCCUGUCAGAUUCUGGUGAAUCUGCGAAUUUUGCUGU | 0.921
57 | GGGGGCCACAGCAGAAGCGUACACGUCGCGGCCCCUGUCAGAUUCUGGUGAAUCUGCGAAUUCUGAUGU | 0.781
58 | GGGGGCCACAGCAGAAGCGUACACGUCGCGGCCCCUGUCAGAUUCUGGUGAAUCUGCGAAUUCUGGUGU | 0.835
59 | GGGGGCCACAGCAGAAGCGUACACAUCGCGGCCCCUGUCAGAUUCUGGUGAAUCUGCGAAUUCUGCUGU | 0.244
60 | GGGGGCCACAGCAGAAGCGUACACCUCGCGGCCCCUGUCAGAUUCUGGUGAAUCUGCGAAUUCUGCUGU | 0.249
61 | GGGGGCCACAGCAGAAGCGUACACUUCGCGGCCCCUGUCAGAUUCUGGUGAAUCUGCGAAUUCUGCUGU | 0.136
62 | GGGGGCCACAGCAGAAGCGUACACGUCACGGCCCCUGUCAGAUUCUGGUGAAUCUGCGAAUUCUGCUGU | 0.219
63 | GGGGGCCACAGCAGAAGCGUACACGUCCCGGCCCCUGUCAGAUUCUGGUGAAUCUGCGAAUUCUGCUGU | 0.193
64 | GGGGGCCACAGCAGAAGCGUACACGUCGCCGCCCCUGUCAGAUUCUGGUGAAUCUGCGAAUUCUGCUGU | 0.532
65 | GGGGGCCACAGCAGAAGCGUACACGUCGCUGCCCCUGUCAGAUUCUGGUGAAUCUGCGAAUUCUGCUGU | 0.343
66 | GGGGGCCACAGCAGAAGCGUACACGUCGCGACCCCUGUCAGAUUCUGGUGAAUCUGCGAAUUCUGCUGU | 0.803
67 | GGGGGCCACAGCAGAAGCGUACACGUCGCGUCCCCUGUCAGAUUCUGGUGAAUCUGCGAAUUCUGCUGU | 0.595
68 | GGGGGCCACAGCAGAAGCGUACACGUCGCGGCCCCUUUCAGAUUCUGGUGAAUCUGCGAAUUCUGCUGU | 0.356
69 | GGGGGCCACAGCAGAAGCGUACACGUCGCGGCCCCUGUCAAAUUCUGGUGAAUCUGCGAAUUCUGCUGU | 0.855
70 | GGGGGCCACAGCAGAAGCGUACACGUCGCGGCCCCUGUCACAUUCUGGUGAAUCUGCGAAUUCUGCUGU | 0.694
71 | GGGGGCCACAGCAGAAGCGUACACGUCGCGGCCCCUGUCAUAUUCUGGUGAAUCUGCGAAUUCUGCUGU | 0.824
72 | GGGGGCCACAGCAGAAGCGUACACGUCGCGGCCCCUGUCAGAUUCUAGUGAAUCUGCGAAUUCUGCUGU | 0.969
73 | GGGGGCCACAGCAGAAGCGUACACGUCGCGGCCCCUGUCAGAUUCUCGUGAAUCUGCGAAUUCUGCUGU | 0.988
74 | GGGGGCCACAGCAGAAGCGUACACGUCGCGGCCCCUGUCAGAUUCUUGUGAAUCUGCGAAUUCUGCUGU | 0.992
75 | GGGGGCCACAGCAGAAGCGUACACGUCGCGGCCCCUGUCAGAUUCUGAUGAAUCUGCGAAUUCUGCUGU | 1
76 | GGGGGCCACAGCAGAAGCGUACACGUCGCGGCCCCUGUCAGAUUCUGUUGAAUCUGCGAAUUCUGCUGU | 0.978
77 | GGGGGCCACAGCAGAAGCGUACACGUCGCGGCCCCUGUCAGAUUCUGGUAAAUCUGCGAAUUCUGCUGU | 0.989
78 | GGGGGCCACAGCAGAAGCGUACACGUCGCGGCCCCUGUCAGAUUCUGGUCAAUCUGCGAAUUCUGCUGU | 0.924
